Experimental data from article PMC12499481, “Design of the Hydrophobic Core of Self‐Assembling Peptide Fibrils for Enhanced Neural Regeneration” (Small Science, 2025).

Tests used:
[1] = target: the molecule itself; test: conversion rate assay (3 kDa centrifugal filtration, fluorescamine fluorescence); self-assembly; 1 mM peptide incubated 24 h, monomers separated from fibers at 12 000 g for 60 min at 4 °C; filtrated against nonfiltrated fluorescence
[2] = target: the molecule itself; test: dynamic light scattering; self-assembly; peptide diluted from 10 mM DMSO stock into DPBS (6 μM to 1 mM), 24 h incubation, room temperature; derived count rate below 5 kcps defined as no aggregation

B1: EF‐CV (peptide)
peptide: KVKVQVN
notes: designed variant of enhancing factor-C (EF-C), pattern KXKXQXN with X = V; self-assembling peptide; made on Fmoc-Asn(Trt) Wang resin; also called KVKVQVN; source: synthetic peptide (Fmoc-SPPS, preparative RP-HPLC, purity ≥ 90 %)
In the case of B1, the conversion rate [1] is reported as 62% and the aggregation concentration [2] is reported as ≤ 100 µM.

B2: EF‐CL (peptide)
peptide: KLKLQLN
notes: designed variant of enhancing factor-C (EF-C), pattern KXKXQXN with X = L; self-assembling peptide; made on Fmoc-Asn(Trt) Wang resin; also called KLKLQLN; source: synthetic peptide (Fmoc-SPPS, preparative RP-HPLC, purity ≥ 90 %)
B2 was tested, and the conversion rate [1] was 73% and the aggregation concentration [2] was ≤ 100 µM.

B3: EF‐CI (peptide)
peptide: KIKIQIN
notes: designed variant of enhancing factor-C (EF-C), pattern KXKXQXN with X = I; self-assembling peptide; made on Fmoc-Asn(Trt) Wang resin; also called KIKIQIN; source: synthetic peptide (Fmoc-SPPS, preparative RP-HPLC, purity ≥ 90 %)
For B3, the conversion rate [1] was 93% and the aggregation concentration [2] was ≤ 100 µM.

B4: EF‐CF (peptide)
peptide: KFKFQFN
notes: designed variant of enhancing factor-C (EF-C), pattern KXKXQXN with X = F; self-assembling peptide; made on Fmoc-Asn(Trt) Wang resin; also called KFKFQFN; source: synthetic peptide (Fmoc-SPPS, preparative RP-HPLC, purity ≥ 90 %)
B4 was tested, and the conversion rate [1] was 94% and the aggregation concentration [2] was ≤ 100 µM.

B5: EF‐CW (peptide)
peptide: KWKWQWN
notes: designed variant of enhancing factor-C (EF-C), pattern KXKXQXN with X = W; self-assembling peptide; made on Fmoc-Asn(Trt) Wang resin; also called KWKWQWN; source: synthetic peptide (Fmoc-SPPS, preparative RP-HPLC, purity ≥ 90 %)
In the case of B5, the conversion rate [1] is reported as 94% and the aggregation concentration [2] is reported as ≤ 100 µM.
